Targets include LAP2, Q96RT1; LIMK2, P53671; NHERF4_4, Q86UT5; LNX1_3, Q8TBB1; Inadl_3, Q8NI35; DLG4_2, P78352; IL16_1, Q14005; FRMPD2_1, Q68DX3; NHERF4_2, Q86UT5.
What all share (test): holdup assay
What all share (set-up): key: below the threshold = too weak to quantify, mostly under pKd 3.1 to 4

The target of the next assay is T1, LNX2_3, Q8N448.
T1 sequence (Q8N448 463-564, limits assumed, looked up): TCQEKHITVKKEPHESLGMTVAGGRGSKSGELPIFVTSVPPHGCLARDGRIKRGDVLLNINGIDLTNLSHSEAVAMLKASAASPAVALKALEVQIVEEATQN

The next assay addresses T2, MPP6, Q9NZW5.
T2 sequence (Q9NZW5 125-219, limits assumed, looked up): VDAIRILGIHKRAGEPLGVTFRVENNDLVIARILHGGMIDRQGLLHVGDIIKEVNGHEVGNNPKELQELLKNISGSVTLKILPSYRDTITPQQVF

The target of the next assay is T3, MPP7, Q5T2T1.
T3 sequence (Q5T2T1 134-230, limits assumed, looked up): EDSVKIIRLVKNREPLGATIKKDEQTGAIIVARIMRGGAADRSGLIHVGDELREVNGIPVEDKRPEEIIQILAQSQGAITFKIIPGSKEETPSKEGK

Another assay addresses T4, FRMPD1, Q5SYB0.
T4 sequence (Q5SYB0 52-145, limits assumed, looked up): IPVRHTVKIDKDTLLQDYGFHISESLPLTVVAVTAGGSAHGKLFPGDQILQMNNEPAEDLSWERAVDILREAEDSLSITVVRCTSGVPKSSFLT

The target in a further assay is T5, CARD11, Q9BXL7.
T5 sequence (Q9BXL7 662-765, limits assumed, looked up): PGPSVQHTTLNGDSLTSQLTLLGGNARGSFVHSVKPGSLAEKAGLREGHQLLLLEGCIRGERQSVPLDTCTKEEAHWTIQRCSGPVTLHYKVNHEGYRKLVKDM

The target in the next assay is T6, SHANK1, Q9Y566.
T6 sequence (Q9Y566 658-767, limits assumed, looked up): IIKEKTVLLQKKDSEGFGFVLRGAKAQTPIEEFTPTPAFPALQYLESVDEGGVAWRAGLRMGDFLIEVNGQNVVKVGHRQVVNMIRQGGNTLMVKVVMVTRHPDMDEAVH

Another assay addresses T7, PDZD2_2, O15018.
T7 sequence (O15018 329-429, limits assumed, looked up): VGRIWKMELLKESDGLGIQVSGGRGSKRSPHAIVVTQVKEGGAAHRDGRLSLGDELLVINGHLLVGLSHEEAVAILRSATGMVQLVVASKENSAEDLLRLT

The next assay deals with T8, TX1BP3, O14907.
T8 sequence (O14907 10-122, limits assumed, looked up): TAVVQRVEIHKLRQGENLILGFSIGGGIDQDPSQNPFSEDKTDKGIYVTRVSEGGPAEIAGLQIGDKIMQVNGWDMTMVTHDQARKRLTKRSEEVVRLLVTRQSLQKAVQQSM

The target in another assay is T9, MPDZ_10, O75970.
T9 sequence (O75970 1624-1722, limits assumed, looked up): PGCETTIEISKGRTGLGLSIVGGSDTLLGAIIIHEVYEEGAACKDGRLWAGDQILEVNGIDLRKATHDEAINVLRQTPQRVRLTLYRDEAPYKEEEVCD

The next assay has as its target T10, NHERF3_4, Q5T2W1.
T10 sequence (Q5T2W1 373-468, limits assumed, looked up): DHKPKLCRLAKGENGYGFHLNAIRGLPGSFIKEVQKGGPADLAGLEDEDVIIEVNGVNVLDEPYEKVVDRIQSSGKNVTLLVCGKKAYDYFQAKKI

Another assay has as its target T11, APBA1_2, Q02410.
T11 sequence (Q02410 742-832, limits assumed, looked up): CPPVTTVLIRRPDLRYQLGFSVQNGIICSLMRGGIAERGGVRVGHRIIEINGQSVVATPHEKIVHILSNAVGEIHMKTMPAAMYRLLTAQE

Another assay concerns the target T12, APBA2_2, Q99767.
T12 sequence (Q99767 654-744, limits assumed, looked up): T11 sequence (Q02410 742-832, limits assumed, looked up) with R10K, R15K, P59A, H65Q, I66A, A70S, Y84F, A89G

The target of another assay is T13, DFNB31_2, Q9P202.
T13 sequence (Q9P202 274-371, limits assumed, looked up): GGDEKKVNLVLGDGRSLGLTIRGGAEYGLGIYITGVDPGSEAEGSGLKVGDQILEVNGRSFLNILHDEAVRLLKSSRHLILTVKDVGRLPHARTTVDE

The target in a further assay is T14, NHERF3_3, Q5T2W1.
T14 sequence (Q5T2W1 238-333, limits assumed, looked up): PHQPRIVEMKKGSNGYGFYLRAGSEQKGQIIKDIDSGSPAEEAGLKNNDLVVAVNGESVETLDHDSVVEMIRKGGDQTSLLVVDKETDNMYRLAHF

[1] abbreviates: plain residues with an end cap or a label only (N-terminal biotin on a linker: ahx).
The mark [2] stands for this setting: plain residues with an end cap or a label only (N-terminal biotin on a linker: ttds).

Where a chain is given by its changes, count along the chain named.

IL16_1, Q14005, sequence (Q14005 210-306): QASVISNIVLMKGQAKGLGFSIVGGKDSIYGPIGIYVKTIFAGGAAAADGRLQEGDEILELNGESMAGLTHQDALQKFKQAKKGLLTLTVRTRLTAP
Inadl_3, Q8NI35, sequence (Q8NI35 359-469): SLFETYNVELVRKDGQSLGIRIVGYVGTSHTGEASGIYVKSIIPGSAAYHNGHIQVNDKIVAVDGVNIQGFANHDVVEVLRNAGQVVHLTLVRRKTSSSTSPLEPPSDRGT
DLG4_2, P78352, sequence (P78352 155-259): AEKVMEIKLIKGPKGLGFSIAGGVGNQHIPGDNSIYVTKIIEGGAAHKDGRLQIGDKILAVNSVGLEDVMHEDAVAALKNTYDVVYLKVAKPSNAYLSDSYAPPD
LIMK2, P53671, sequence (P53671 143-248): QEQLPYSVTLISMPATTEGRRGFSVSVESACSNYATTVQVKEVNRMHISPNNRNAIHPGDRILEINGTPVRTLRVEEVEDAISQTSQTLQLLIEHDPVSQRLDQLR
FRMPD2_1, Q68DX3, sequence (Q68DX3 770-861): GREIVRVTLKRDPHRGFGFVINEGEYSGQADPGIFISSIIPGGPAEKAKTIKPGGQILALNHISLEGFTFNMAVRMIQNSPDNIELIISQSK
LAP2, Q96RT1, sequence (Q96RT1 other isoform, or with tags, fused parts or gaps): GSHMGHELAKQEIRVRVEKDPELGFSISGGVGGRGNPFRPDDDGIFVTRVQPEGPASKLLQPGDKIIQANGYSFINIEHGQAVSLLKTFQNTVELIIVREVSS
NHERF4_4, Q86UT5, sequence (Q86UT5 464-550): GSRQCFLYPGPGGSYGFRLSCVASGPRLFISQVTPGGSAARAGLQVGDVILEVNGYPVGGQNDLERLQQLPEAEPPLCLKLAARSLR
NHERF4_2, Q86UT5, sequence (Q86UT5 220-308): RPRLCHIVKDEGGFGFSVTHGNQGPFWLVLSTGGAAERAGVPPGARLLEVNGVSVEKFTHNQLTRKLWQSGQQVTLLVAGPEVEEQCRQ
LNX1_3, Q8TBB1, sequence (Q8TBB1 500-596): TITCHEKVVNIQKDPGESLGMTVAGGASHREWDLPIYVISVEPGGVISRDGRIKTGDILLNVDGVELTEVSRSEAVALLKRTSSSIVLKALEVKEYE

B1: RGS12, O14924 (peptide)
chain: KTSAHHATFV
Take B1: the pKd is 4.34 in the assay with LAP2, Q96RT1 (setting [1]); “below the threshold” with LIMK2, P53671 (setting [1]); “below the threshold” in the assay with LNX2_3, Q8N448 (setting [1]); “below the threshold” in the assay with NHERF4_4, Q86UT5 (setting [1]); “below the threshold” with MPP6, Q9NZW5 (setting [1]); “below the threshold” with MPP7, Q5T2T1 (setting [1]). In addition, the pKd entry is “below the threshold” in the assay with FRMPD1, Q5SYB0 (setting [1]); “below the threshold” with CARD11, Q9BXL7 (setting [1]); “below the threshold” with SHANK1, Q9Y566 (setting [1]); 5.04 with PDZD2_2, O15018 (setting [1]); “below the threshold” in the assay with LNX1_3, Q8TBB1 (setting [1]); “below the threshold” in the assay with Inadl_3, Q8NI35 (setting [1]). The pKd in the assay with DLG4_2, P78352 (setting [1]) is 4.13; with TX1BP3, O14907 (setting [1]), 3.78; with IL16_1, Q14005 (setting [1]) it was “below the threshold”; with FRMPD2_1, Q68DX3 (setting [1]), “below the threshold”; with MPDZ_10, O75970 (setting [1]), 3.98; with NHERF3_4, Q5T2W1 (setting [1]) it was “below the threshold”. Further, the pKd result with NHERF4_2, Q86UT5 (setting [1]) was “below the threshold”; with APBA1_2, Q02410 (setting [1]) it was 4.87; with APBA2_2, Q99767 (setting [1]), “below the threshold”; in the assay with DFNB31_2, Q9P202 (setting [1]) it was “below the threshold”; in the assay with NHERF3_3, Q5T2W1 (setting [1]), “below the threshold”.

B2: NHERF3, Q5T2W1 (peptide)
chain: SSSNSEDTEM
Take B2: the negative-log Kd (pKd) entry is given as “below the threshold” with LAP2, Q96RT1 (setting [1]); “below the threshold” with LIMK2, P53671 (setting [1]); “below the threshold” with LNX2_3, Q8N448 (setting [1]); “below the threshold” with NHERF4_4, Q86UT5 (setting [1]); “below the threshold” with MPP6, Q9NZW5 (setting [1]); “below the threshold” with MPP7, Q5T2T1 (setting [1]). Also, the pKd entry in the assay with FRMPD1, Q5SYB0 (setting [1]) is on record as “below the threshold”; with CARD11, Q9BXL7 (setting [1]), “below the threshold”; in the assay with SHANK1, Q9Y566 (setting [1]), “below the threshold”; with PDZD2_2, O15018 (setting [1]) it was “below the threshold”; in the assay with LNX1_3, Q8TBB1 (setting [1]), “below the threshold”; in the assay with Inadl_3, Q8NI35 (setting [1]), “below the threshold”. The pKd entry with DLG4_2, P78352 (setting [1]) was “below the threshold”; in the assay with TX1BP3, O14907 (setting [1]), “below the threshold”; in the assay with IL16_1, Q14005 (setting [1]) it was “below the threshold”; in the assay with FRMPD2_1, Q68DX3 (setting [1]), “below the threshold”; in the assay with MPDZ_10, O75970 (setting [1]) it was “below the threshold”; with NHERF3_4, Q5T2W1 (setting [1]), “below the threshold”. In addition, the pKd entry in the assay with NHERF4_2, Q86UT5 (setting [1]) was “below the threshold”; in the assay with APBA1_2, Q02410 (setting [1]) it was “below the threshold”; with APBA2_2, Q99767 (setting [1]), “below the threshold”; with DFNB31_2, Q9P202 (setting [1]), “below the threshold”; in the assay with NHERF3_3, Q5T2W1 (setting [1]), “below the threshold”.

B3: DGKZ, Q13574 (peptide)
chain: IQREDQETAV
Regarding B3, the pKd was 4.54 with LAP2, Q96RT1 (setting [2]); “below the threshold” with LIMK2, P53671 (setting [2]); “below the threshold” with LNX2_3, Q8N448 (setting [2]); “below the threshold” in the assay with NHERF4_4, Q86UT5 (setting [2]); “below the threshold” with MPP6, Q9NZW5 (setting [2]); “below the threshold” with MPP7, Q5T2T1 (setting [2]). Also, the pKd entry with FRMPD1, Q5SYB0 (setting [2]) was “below the threshold”; with CARD11, Q9BXL7 (setting [2]), “below the threshold”; in the assay with SHANK1, Q9Y566 (setting [2]), 4.3; with PDZD2_2, O15018 (setting [2]), 5.1; in the assay with LNX1_3, Q8TBB1 (setting [2]), “below the threshold”; with Inadl_3, Q8NI35 (setting [2]) it was “below the threshold”. For the same molecule, the pKd is 4.96 with DLG4_2, P78352 (setting [2]); 4.18 with TX1BP3, O14907 (setting [2]); 4.38 with IL16_1, Q14005 (setting [2]); “below the threshold” with FRMPD2_1, Q68DX3 (setting [2]); “below the threshold” with MPDZ_10, O75970 (setting [2]); “below the threshold” with NHERF3_4, Q5T2W1 (setting [2]). Also, the pKd result with NHERF4_2, Q86UT5 (setting [2]) is “below the threshold”; with APBA1_2, Q02410 (setting [2]), 4.2; in the assay with APBA2_2, Q99767 (setting [2]), “below the threshold”; with DFNB31_2, Q9P202 (setting [2]), “below the threshold”; with NHERF3_3, Q5T2W1 (setting [2]), “below the threshold”.

B4: ATP2B1, P20020 (peptide)
chain: SPLHSLETSL
Take B4: the negative-log Kd (pKd) with LAP2, Q96RT1 (setting [2]) is 3.8; with LIMK2, P53671 (setting [2]) it was “below the threshold”; in the assay with LNX2_3, Q8N448 (setting [2]) it was “below the threshold”; with NHERF4_4, Q86UT5 (setting [2]) it was “below the threshold”; with MPP6, Q9NZW5 (setting [2]), “below the threshold”; with MPP7, Q5T2T1 (setting [2]) it was “below the threshold”. The pKd entry with FRMPD1, Q5SYB0 (setting [2]) was “below the threshold”; with CARD11, Q9BXL7 (setting [2]), “below the threshold”; with SHANK1, Q9Y566 (setting [2]), 4.71; in the assay with PDZD2_2, O15018 (setting [2]), “below the threshold”; with LNX1_3, Q8TBB1 (setting [2]), “below the threshold”; with Inadl_3, Q8NI35 (setting [2]) it was 3.51. Moreover, the pKd in the assay with DLG4_2, P78352 (setting [2]) is 4.15; with TX1BP3, O14907 (setting [2]), 4.45; in the assay with IL16_1, Q14005 (setting [2]), “below the threshold”; with FRMPD2_1, Q68DX3 (setting [2]), “below the threshold”; in the assay with MPDZ_10, O75970 (setting [2]), “below the threshold”; with NHERF3_4, Q5T2W1 (setting [2]), 3.94. Further, the pKd entry was “below the threshold” with NHERF4_2, Q86UT5 (setting [2]); 3.93 in the assay with APBA1_2, Q02410 (setting [2]); “below the threshold” with APBA2_2, Q99767 (setting [2]); “below the threshold” with DFNB31_2, Q9P202 (setting [2]); “below the threshold” with NHERF3_3, Q5T2W1 (setting [2]).

In general, pKd refers to −log10 of the Kd, conventionally taken in molar units.

(Values after paper PMC9482650, “Quantitative fragmentomics allow affinity mapping of interactomes” (Nature Communications, 2022).)
